The supplement of paper PMC11908140

B1: library; numbered along this chain (parent)
chain: MRKPRAAVGSGHRKQAASQEGRQKHAKNNSQAKPSACDGLARQPEEVVLQASVSSYHLFRDVAEVTAFRGSLLSWYDQEKRDLPWRRRAEDEMDLDRRAYAVWVSEVMLQQTQVATVINYYTGWMQKWPTLQDLASASLEEVNQLWAGLGYYSRGRRLQEGARKVVEELGGHMPRTAETLQQLLPGVGRYTAGAIASIAFGQATGVVDGNVARVLCRVRAIGADPSSTLVSQQLWGLAQQLVDPARPGDFNQAAMELGATVCTPQRPLCSQCPVESLCRARQRVEQEQLLASGSLSGSPDVEECAPNTGQCHLCLPPSEPWDQTLGVVNFPRKASRKPPREESSATCVLEQPGALGAQILLVQRPNSGLLAGLWEFPSVTWEPSEQLQRKALLQELQRWAGPLPATHLRHLGEVVHTFSHIKLTYQVYGLALEGQTPVTTVPPGARWLTQEEFHTAAVSTAMKKVFRVYQGQQPGTCMGSKRSQVSSPCSRKKPRMGQQVLDNFFRSHISTDAHSLNSAAQ

Variants of: B1
Assay: 8OG:A repair function score (normalized; synonymous = 0, nonsense = -1) (normalized log-likelihood score); higher = more repair activity (WT-like)
Conditions: with 8OG:A DNA repair reporter (GFP) in HEK-293 MUTYH KO cells
How it was run: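 Per-tile Rosace fitness scores were converted to a normalized repair function score anchored on synonymous and nonsense distributions. That scale puts synonymous medians at 0 and nonsense medians at -1. Variants with starting counts under 300 counts per million were discarded. Input came from sorting viable mCherry+ MUTYH knockout HEK-293 cells, carrying lentiviral MUTYH cDNA NNN codon-scan libraries in 10 pg/ml doxycycline and an 8OG:A GFP repair reporter, into GFP+ and GFP− bins at 72 h, three replicates per tile, followed by tile amplicon sequencing.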
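Further: cells sorted at 72 h after reporter transfection.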

8OG:A repair function score, by site and new letter:
R491: K 0.0262; S 0.00574; P -0.0953; I 0.0211; V 0.0088; H 0.0282; T 0.0121; A 0.00371; L -0.00252; Y -0.0848; F 0.0113; W -0.00998; G 0.00614; M 0.0281; C -0.013; D 0.0052; Q -0.00572; E 0.0286; N -0.0106
S486: P 0.0275; E 0.0262; C -0.016; A 0.00239; N 0.00666; F 0.00694; Q -0.0168; W 0.0129; M -0.00979; H 0.026; V -0.00598; R -0.0146; D 0.00623; Y 0.00541; G 0.0224; L 0.00981; I -0.0359; T 0.0101; K -0.0131
S490: G -0.0115; T 0.0117; I -0.0509; L 0.0149; K 0.00805; Y -0.00381; E -0.0309; Q 0.0011; P -0.0172; H -0.00447; C -0.0291; F -0.0204; N 0.0157; D -0.0147; V -0.0138; R 0.00301; M -0.0481; W -0.0113; A -0.00415
V485: I 0.0128; T 0.00314; D 0.0102; R 0.0173; N -0.00234; L 0.0118; K -0.00358; E -0.0478; C 0.0143; P -0.0106; F 0.0143; G -0.0147; H 0.0165; S 0.0216; Y -0.0379; M 0.0202; A -0.00727; W -0.0552; Q -0.0322
G497: T -0.00191; C -0.127; W 0.0164; S -0.0201; Y -0.0861; M -0.0577; V -0.00253; F -0.0315; P -0.0806; I -0.0179; E 0.00606; H -0.0394; A -0.0723; K 0.0129; R -0.0166; L -0.0147; D -0.0474; N 0.0269
V500: I 0.0202; D -0.00453; C -0.0118; G 0.00844; N -0.0108; H 0.0251; E 0.0219; M 0.0185; P -0.0532; L 0.00153; A 0.00946; K -0.0181; F -0.0131
Q499: H 0.0243; C 0.00111; F -0.00963; R -0.0243; A -0.02; L 0.00129; W -0.0171; G -0.0117; N -0.0201; V 0.0113; P 0.0119; E 0.0257; M 0.00183; K -0.00715; T -0.00713; Y -0.045; S 0.00646; D -0.0217; I 0.0124
P488: E -0.0239; T 0.00629; Y -0.0629; A -0.0161; K 0.0286; L 0.00539; W -0.00344; V -0.00252; I 0.0151; N 0.00623; H 0.0202; C -0.0233; G 0.0021; R 0.0168; D -0.00371; Q -0.00562; S 0.00249; F -0.042; M -0.0122
K492: N -0.00159; P 0.0192; A 0.0165; S -0.0044; E 0.022; M 0.015; L -0.0333; W 0.0127; G -0.00555; I 0.0148; F -0.0038; T -0.00293; V -0.0261; R -0.0207; H -0.0225; Q 0.0192; D -0.0117; Y -0.0316; C 0.0201
Q484: C -0.0119; K 0.0117; I -0.0366; R 0.00822; M 0.0126; N 0.0201; D -0.0184; P 0.0115; V -0.0109; S -0.0175; A 0.00718; Y 0.00945; F -0.005; T 0.0125; G 0.00288; L 0.00769; W 0.00872; E 0.022; H 0.0028
S487: N 0.0119; M 0.0121; P -0.0175; V 0.0175; F -0.00307; H 0.00963; L -5.82e-05; K 0.0147; Y 0.00217; I -0.00284; R 0.0273; C 0.0168; W -0.00878; G -0.00491; D 0.0137; E 0.00844; A 0.0181; T -0.0203; Q -0.00246
P494: S -0.00543; R 0.00547; K -0.0663; N 0.0224; L -0.00201; Q -0.000555; V -0.0025; Y -0.00726; W -0.0155; I 0.0172; F -0.0209; H 0.015; E 0.0133; G -0.0242; C 0.0281; A 0.0124; D -0.00383; T 0.0124; M -0.0511
S483: I -0.00113; P 0.0199; W -0.033; V 0.0104; T -0.0473; F 0.0169; Y -0.0745; E -0.0311; A 0.00092; D 0.0208; H 0.00458; R 0.0251; M -0.00708; L 0.00323; K -0.04; N 0.0224; G -0.0331; C 0.025
C489: S 0.0134; N 0.0265; T 0.00493; K -0.0226; H 0.0276; V -0.0255; Q -0.0376; E 0.0219; A -0.00252; F -0.0128; M 0.00595; G 0.00751; D 0.013; W 0.0227; P -0.00598; L 0.0177; R -0.0027; Y 0.00164; I -0.0718
Q498: M -0.0277; P -0.0275; G 0.0187; D 0.00936; I 0.0195; N -0.0368; C -0.0114; E 0.0145; L -0.00389; K -0.00149; A 0.011; H -0.0117; T 0.0263; F -0.0629; Y 0.0174; W 0.0137; S 0.0168; R 0.0169; V 0.00262
R495: V 0.0193; N -0.129; T 0.0177; C -0.00275; D 0.0213; L 0.017; Q -0.0181; A -0.0255; E 0.0282; Y -0.0924; G -0.0152; I -0.0255; M 0.0166; H 0.00173; F -0.0118; S 0.013; K 0.00711; W 0.0272; P 0.0276
M496: V -0.0328; Y 0.00737; W -0.045; G -0.00643; A 0.0241; P -3.86e-05; K 0.00764; C -0.00499; R 0.0258; I -0.0358; T -0.0187; L -0.0124; H 0.0281; E 0.00855; Q -0.106; F 0.0105; N 0.00145; D 0.00779; S -0.0675
K493: R -0.00709; Y 0.00504; D 0.0108; I -0.0174; T 0.0143; L -0.025; S 0.0155; A 0.0129; W 0.00262; G 0.0135; N 0.0279; C -0.00147; V -0.0351; E 0.0199; M -0.00762; F -0.0124; H 0.0281; P 0.0123; Q -0.107
